{
  "source": "patent US20220064329A1",
  "about": "(Novo Nordisk, published 2022)",
  "binders": {"B1": {"name": "mAb0842(OA) (antibody, human IgG4 S228P, kappa)", "heavy": "QVQLQESGPGLVKPSQTLSLTCTVSGYSISSDSAWSWIRQPPGKGLEWIGYIQYSGSTNYNPSLKSRVTISRDTSKNQFSLKLSSVTAADTAVYYCARSVNYYGNSFAVGYWGQGTLVTVSSASTKGPSVFPLAPCSRSTSESTAALGCLVKDYFPEPVTVSWNSGALTSGVHTFPAVLQSSGLYSLSSVVTVPSSSLGTKTYTCNVDHKPSNTKVDKRVESKYGPPCPPCPAPEFLGGPSVFLFPPKPKDTLMISRTPEVTCVVVDVSQEDPEVQFNWYVDGVEVHNAKTKPREEQFNSTYRVVSVLTVLHQDWLNGKEYKCKVSNKGLPSSIEKTISKAKGQPREPQVYTLPPSQEEMTKNQVSLSCAVKGFYPSDIAVEWESNGQPENNYKTTPPVLDSDGSFFLVSRLTVDKSRWQEGNVFSCSVMHEALHNHYTQKSLSLSLGK", "light": "EIVLTQSPATLSLSPGERATLSCRASQGISDYLHWYQQKPGEAPRLLIKYTSQPATGIPARFSGSGSGTDFTLTISSLEPEDFAVYYCQNGHSFPLTFGQGTKLEIKRTVAAPSVFIFPPSDEQLKSGTASVVCLLNNFYPREAKVQWKVDNALQSGNSQESVTEQDSKDSTYSLSSTLTLSKADYEKHKVYACEVTHQGLSSPVTKSFNRGEC", "chain": "not shown", "notes": "also called monovalent humanized 11F2 antibody; one-armed anti-FVII(a) antibody"}},
  "assay_in_all_cases": "SPR, ratio of KD to KD of WT",
  "key": {"[1]": {"target": "T1, FVII(a) variant H115A (human, UniProt P08709 61-466)", "T1 construct": "hFVII alanine variant in cell culture supernatant", "T1 sequence": "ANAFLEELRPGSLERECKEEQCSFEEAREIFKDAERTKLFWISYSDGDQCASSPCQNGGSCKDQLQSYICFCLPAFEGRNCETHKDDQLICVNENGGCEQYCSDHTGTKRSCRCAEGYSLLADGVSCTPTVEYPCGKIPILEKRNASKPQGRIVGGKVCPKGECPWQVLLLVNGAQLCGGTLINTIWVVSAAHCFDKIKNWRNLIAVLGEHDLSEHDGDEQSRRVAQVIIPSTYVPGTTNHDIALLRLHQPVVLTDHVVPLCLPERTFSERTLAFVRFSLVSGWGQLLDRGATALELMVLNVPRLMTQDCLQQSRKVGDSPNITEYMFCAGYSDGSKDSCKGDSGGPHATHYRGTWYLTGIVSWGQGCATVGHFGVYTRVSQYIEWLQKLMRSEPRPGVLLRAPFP"}, "[2]": {"target": "T2, FVII(a) variant E116A (human, UniProt P08709 61-466)", "T2 construct": "hFVII alanine variant in cell culture supernatant", "T2 sequence": "T1 sequence with A115H, E116A"}, "[3]": {"target": "T3, FVII(a) WT (human, UniProt P08709 61-466)", "T3 construct": "also called wild type human FVII(a)", "T3 sequence": "T1 sequence with A115H"}, "[4]": {"target": "T4, FVII(a) variant T130A (human, UniProt P08709 61-466)", "T4 construct": "hFVII alanine variant in cell culture supernatant", "T4 sequence": "T1 sequence with A115H, T130A"}, "[5]": {"target": "T5, FVII(a) variant E394A (human, UniProt P08709 61-466)", "T5 construct": "hFVII alanine variant in cell culture supernatant", "T5 sequence": "T1 sequence with A115H, E394A"}},
  "note": "Substitutions are numbered along the chain they refer to.",
  "data": [
    {"binder": "B1", "values": [
      {"measurement": "Fold diff (Variant/WT)", "setting": "[1]", "result": 26.8, "unit": "fold"},
      {"measurement": "Fold diff (Variant/WT)", "setting": "[2]", "result": 1.6, "unit": "fold"},
      {"measurement": "Fold diff (Variant/WT)", "setting": "[3]", "result": 1, "unit": "fold"},
      {"measurement": "Fold diff (Variant/WT)", "setting": "[4]", "result": 105, "unit": "fold"},
      {"measurement": "Fold diff (Variant/WT)", "setting": "[5]", "result": 2.6, "unit": "fold"}
    ]}
  ]
}
